Experimental data reported in patent US20250326840A1 (QURE BIOTECHNOLOGY SHANGHAI, published 2025).
Where a chain is given by its changes, count along the chain named. Numbers in names are those of the source.

B1: QP37503751 (1H9 analog) (antibody, human IgG1, kappa, N297A, V domains shown)
VH: QVQLVQSGAEVKKPGASVKVSCKASGYTFTSYWITWVKQAPGQGLEWIGDIYPGSGSTNHIEKFKSKATLTVDTSISTAYMELSRLRSDDTAVYYCATGYGSSYGYFDYWGQGTLVTVSS
VL: DIQMTQSPSSLSASVGDRVTITCRASENIYSYLAWYQQKPGKAPKLLIYTAKTLAEGVPSRFSGSGSGTDFTLTISSLQPEDFATYYCQHQYGPPFTFGQGTKLEIKR
notes: also called hz1H9 hIgG1(N297A)
B2: QP32700279 (antibody, human IgG1, kappa, L234A L235A, V domains shown)
VH: QVQLVQSGAEVKKPGASVKVSCKASGYTFTNYWINWVRQAPGQGLEWIAMIDPSDSETHYNQIFKDRATLTTDTSTSTAYMELRSLRSDDTAVYYCAMDYGSLYAMDYWGRGTLVTVSS
VL: DIVLTQSPDSLAVSLGERATINCRASQSVRSSGYNWIFWYQQKPGQPPKLLIYLASNRDSGVPDRFSGSGSGTDFTLTISSLQAEDVAVYYCQHSRELPTFGQGTKLEIKR
notes: also called SIRPα monoclonal antibody CHO71
B3: QP026249 (KWAR23 analog) (antibody, human IgG4 S228P, kappa)
heavy: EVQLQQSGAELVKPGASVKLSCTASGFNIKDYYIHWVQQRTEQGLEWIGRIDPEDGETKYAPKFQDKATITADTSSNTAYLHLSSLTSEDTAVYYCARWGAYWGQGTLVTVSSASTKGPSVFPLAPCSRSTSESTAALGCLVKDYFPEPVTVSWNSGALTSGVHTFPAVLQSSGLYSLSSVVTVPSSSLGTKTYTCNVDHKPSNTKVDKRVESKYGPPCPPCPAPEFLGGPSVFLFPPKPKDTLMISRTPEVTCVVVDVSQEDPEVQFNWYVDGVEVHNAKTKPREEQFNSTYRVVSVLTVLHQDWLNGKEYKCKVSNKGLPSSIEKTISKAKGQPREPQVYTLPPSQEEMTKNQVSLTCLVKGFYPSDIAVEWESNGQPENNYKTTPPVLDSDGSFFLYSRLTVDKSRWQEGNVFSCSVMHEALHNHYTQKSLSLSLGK
light: QIVLTQSPAIMSASPGEKVTLTCSASSSVSSSYLYWYQQKPGSSPKLWIYSTSNLASGVPARFSGSGSGTSYSLTISSMEAEDAASYFCHQWSSYPRTFGAGTKLELKRTVAAPSVFIFPPSDEQLKSGTASVVCLLNNFYPREAKVQWKVDNALQSGNSQESVTEQDSKDSTYSLSSTLTLSKADYEKHKVYACEVTHQGLSSPVTKSFNRGEC
notes: also called KAWA23 analog; control antibody KWAR23 (QP026249), human IgG4
B4: QP250251 (18D5 analog) (antibody, human IgG4 S228P, kappa, V domains shown)
VH: QVQLQQPGAELVRPGSSVKLSCKASGYTFTSYWVHWVKQRPIQGLEWIGNIDPSDSDTHYNQKFKDKASLTVDKSSSTAYMQLSSLTFEDSAVYYCVRGGTGTMAWFAYWGQGTLVTVSA
VL: DVVMTQTPLSLPVSLGDQASISCRSSQSLVHSYGNTYLYWYLQKPGQSPKLLIYRVSNRFSGVPDRFSGSGSGTDFTLKISRVEAEDLGVYFCFQGTHVPYTFGSGTKLEIKR
notes: also called SIRPα antibody 18D5 from OSE
B5: QP256279 (antibody, human IgG4, V domains shown)
VH: B2 VH
VL: DIVLTQSPDSLAVSLGERATINCRASQSVRSSGYNWIFWYQQKPGQPPKLLIYLASNRDSGVPDRFSGSGSGTDFTLTISSLQAEDVAVYYCQHSRELPTFGQGTKLEIK
notes: Human IgG4 heavy constant region and kappa CL

The binders below were run against T1, human SIRPα V2 on THP-1 cells (human, UniProt P78324 31-504) (assay: FACS on THP-1 cells).
T1 construct: whole, on cells; also called THP-1 (human SIRPα V2)
T1 sequence (P78324 other isoform, or with tags, fused parts or gaps limits assumed): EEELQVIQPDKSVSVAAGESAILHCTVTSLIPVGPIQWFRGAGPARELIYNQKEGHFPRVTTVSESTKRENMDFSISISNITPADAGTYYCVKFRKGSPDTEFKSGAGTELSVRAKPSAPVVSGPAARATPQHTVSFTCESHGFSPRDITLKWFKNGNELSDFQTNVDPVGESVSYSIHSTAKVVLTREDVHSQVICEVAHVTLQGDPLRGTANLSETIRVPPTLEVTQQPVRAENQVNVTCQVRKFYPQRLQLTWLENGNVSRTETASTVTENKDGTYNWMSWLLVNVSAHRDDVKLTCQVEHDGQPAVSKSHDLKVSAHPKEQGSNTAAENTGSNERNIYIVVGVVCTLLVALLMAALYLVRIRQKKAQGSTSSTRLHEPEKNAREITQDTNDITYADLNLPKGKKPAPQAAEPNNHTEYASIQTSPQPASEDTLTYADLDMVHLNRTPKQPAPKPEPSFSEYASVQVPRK

Going from B1 to B2, the EC50 falls from 0.21 nM to 0.0743 nM (2.8-fold). The second is the more potent here.

B3 was tested, and the EC50 was 0.261 nM.

B4: no binding.

Molecular target: T2, QP533 (SIRPαV4-mFC(mIgG2a)) (human, limits assumed)
T2 construct: also called human SIRPα V4 recombinant protein (QP533)
T2 chain: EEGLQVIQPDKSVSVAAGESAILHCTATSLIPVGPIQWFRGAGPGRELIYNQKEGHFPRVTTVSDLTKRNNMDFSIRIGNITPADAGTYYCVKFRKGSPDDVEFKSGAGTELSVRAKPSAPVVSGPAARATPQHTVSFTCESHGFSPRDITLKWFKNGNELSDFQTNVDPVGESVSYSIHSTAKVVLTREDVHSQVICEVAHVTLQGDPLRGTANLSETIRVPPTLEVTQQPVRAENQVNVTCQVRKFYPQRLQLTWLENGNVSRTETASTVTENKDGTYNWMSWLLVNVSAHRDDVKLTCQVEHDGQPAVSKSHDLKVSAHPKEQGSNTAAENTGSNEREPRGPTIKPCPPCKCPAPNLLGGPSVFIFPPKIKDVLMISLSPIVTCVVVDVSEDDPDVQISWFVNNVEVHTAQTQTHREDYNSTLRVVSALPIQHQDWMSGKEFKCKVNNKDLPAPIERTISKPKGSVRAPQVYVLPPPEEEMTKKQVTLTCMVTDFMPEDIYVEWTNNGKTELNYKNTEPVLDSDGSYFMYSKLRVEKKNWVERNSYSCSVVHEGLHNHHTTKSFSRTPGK
Test: ELISA, human SIRPα V4 recombinant protein (QP533) coated, HRP anti-human Fc detection

B1 and B2 are within 1.5-fold of each other in EC50: 0.169 nM for the first, 0.151 nM for the second.

B3 and B4 are within 1.5-fold of each other in EC50: 0.439 nM for the first, 0.539 nM for the second.

Molecular target: T3, QP534 (SIRPαV5-mFC(mIgG2a)) (human, limits assumed)
T3 construct: also called human SIRPα V5 recombinant protein (QP534)
T3 chain: T2 chain with G3E, S12F, S14L, S20T, I22T, H24R
Test: ELISA, human SIRPα V5 recombinant protein (QP534) coated, HRP anti-human Fc detection

B1 and B2 are within 1.5-fold of each other in EC50: 0.167 nM for the first, 0.15 nM for the second.

B3 and B4 are within 1.5-fold of each other in EC50: 0.418 nM for the first, 0.438 nM for the second.

Molecular target: T4, QP535 (SIRPαV6-mFC(mIgG2a)) (human, limits assumed)
T4 construct: also called human SIRPα V6 recombinant protein (QP535)
T4 chain: T2 chain with G3E, S14L, S20T, I22T, H24R, S75P
Test: ELISA, human SIRPα V6 recombinant protein (QP535) coated, HRP anti-human Fc detection

B1 and B2 are within 1.5-fold of each other in EC50: 0.273 nM for the first, 0.224 nM for the second.

B3 and B4 are within 1.5-fold of each other in EC50: 0.603 nM for the first, 0.884 nM for the second.

What follows are binders tested against T5, QP536 (SIRPαV7-mFC(mIgG2a)) (human) (assay: ELISA, human SIRPα V7 recombinant protein (QP536) coated, HRP anti-human Fc detection).
T5 construct: also called human SIRPα V7 recombinant protein (QP536)

B1 and B2 are within 1.5-fold of each other in EC50: 0.247 nM for the first, 0.176 nM for the second.

B3 showed an EC50 of 0.376 nM.

Molecular target: T6, SIRPα V9 fusion Fc (mouse IgG2a) (human, limits assumed)
T6 chain: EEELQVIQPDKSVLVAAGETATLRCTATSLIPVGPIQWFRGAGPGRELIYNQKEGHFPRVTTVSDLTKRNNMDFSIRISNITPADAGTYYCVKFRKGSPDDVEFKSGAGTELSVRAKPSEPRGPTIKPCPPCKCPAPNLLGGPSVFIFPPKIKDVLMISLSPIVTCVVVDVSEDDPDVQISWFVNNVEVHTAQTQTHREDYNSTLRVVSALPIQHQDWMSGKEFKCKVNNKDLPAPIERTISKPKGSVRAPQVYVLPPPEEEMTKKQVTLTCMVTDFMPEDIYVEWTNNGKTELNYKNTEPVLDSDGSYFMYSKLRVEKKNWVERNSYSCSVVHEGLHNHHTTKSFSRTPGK
Test: ELISA, SIRPα V9-mouse IgG2a Fc coated, anti-hFab detection; unit from the x axis Log(Conc.(nM))

First: B5
Second: B3
The EC50 of the first is 2.1-fold lower: 0.0874 nM for the first, 0.181 nM for the second.

B4 showed an EC50 of 0.157 nM.
